Biological target: brca1_human BRCA1 (UniProt P38398)
Sequence (P38398 whole entry, looked up): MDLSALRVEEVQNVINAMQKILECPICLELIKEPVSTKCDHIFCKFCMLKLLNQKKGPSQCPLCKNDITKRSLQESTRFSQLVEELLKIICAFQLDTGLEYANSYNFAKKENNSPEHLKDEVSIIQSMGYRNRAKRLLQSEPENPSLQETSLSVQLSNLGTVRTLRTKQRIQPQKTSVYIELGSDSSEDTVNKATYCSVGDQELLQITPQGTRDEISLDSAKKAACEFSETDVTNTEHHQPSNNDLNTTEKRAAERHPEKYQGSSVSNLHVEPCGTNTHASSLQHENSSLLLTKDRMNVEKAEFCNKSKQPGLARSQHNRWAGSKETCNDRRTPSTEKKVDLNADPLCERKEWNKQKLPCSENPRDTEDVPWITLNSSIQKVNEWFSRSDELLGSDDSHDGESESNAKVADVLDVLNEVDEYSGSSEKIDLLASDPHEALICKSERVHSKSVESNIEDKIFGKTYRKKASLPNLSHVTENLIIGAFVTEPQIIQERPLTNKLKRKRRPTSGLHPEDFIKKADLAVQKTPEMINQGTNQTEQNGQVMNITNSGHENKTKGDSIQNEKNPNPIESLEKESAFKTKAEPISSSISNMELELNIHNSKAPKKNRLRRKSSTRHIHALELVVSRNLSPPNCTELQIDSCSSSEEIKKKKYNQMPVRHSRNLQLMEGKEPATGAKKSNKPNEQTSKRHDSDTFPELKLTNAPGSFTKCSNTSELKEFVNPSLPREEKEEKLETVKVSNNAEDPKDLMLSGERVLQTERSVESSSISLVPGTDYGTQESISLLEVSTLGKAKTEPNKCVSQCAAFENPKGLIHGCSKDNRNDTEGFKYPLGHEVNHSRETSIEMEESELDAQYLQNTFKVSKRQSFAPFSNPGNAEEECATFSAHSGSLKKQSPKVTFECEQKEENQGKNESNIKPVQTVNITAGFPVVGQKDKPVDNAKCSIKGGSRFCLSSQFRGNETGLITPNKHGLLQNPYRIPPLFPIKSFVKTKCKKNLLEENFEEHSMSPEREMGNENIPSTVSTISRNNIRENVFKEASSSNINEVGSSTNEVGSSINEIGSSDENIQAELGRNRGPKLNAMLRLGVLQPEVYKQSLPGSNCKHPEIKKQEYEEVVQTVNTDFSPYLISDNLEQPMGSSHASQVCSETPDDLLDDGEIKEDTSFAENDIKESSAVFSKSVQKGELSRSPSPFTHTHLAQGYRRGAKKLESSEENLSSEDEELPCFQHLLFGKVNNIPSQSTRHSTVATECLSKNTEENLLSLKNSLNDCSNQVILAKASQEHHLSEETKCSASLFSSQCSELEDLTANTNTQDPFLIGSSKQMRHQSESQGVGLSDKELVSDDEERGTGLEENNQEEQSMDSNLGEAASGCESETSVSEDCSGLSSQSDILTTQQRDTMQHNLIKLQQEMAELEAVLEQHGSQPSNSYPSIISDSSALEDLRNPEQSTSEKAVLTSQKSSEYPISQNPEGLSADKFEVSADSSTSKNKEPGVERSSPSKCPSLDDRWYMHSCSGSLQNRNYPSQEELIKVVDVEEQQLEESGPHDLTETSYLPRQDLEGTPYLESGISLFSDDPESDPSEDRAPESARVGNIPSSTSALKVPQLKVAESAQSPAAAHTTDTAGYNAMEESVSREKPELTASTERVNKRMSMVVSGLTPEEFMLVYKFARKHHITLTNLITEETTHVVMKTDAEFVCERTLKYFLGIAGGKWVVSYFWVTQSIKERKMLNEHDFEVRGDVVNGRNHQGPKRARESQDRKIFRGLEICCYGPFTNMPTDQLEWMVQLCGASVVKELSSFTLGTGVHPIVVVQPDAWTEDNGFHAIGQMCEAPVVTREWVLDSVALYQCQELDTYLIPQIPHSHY

Sequence of Neurabin-2 (Homo sapiens), Q96SB3 F451A (Q96SB3 whole entry F451A): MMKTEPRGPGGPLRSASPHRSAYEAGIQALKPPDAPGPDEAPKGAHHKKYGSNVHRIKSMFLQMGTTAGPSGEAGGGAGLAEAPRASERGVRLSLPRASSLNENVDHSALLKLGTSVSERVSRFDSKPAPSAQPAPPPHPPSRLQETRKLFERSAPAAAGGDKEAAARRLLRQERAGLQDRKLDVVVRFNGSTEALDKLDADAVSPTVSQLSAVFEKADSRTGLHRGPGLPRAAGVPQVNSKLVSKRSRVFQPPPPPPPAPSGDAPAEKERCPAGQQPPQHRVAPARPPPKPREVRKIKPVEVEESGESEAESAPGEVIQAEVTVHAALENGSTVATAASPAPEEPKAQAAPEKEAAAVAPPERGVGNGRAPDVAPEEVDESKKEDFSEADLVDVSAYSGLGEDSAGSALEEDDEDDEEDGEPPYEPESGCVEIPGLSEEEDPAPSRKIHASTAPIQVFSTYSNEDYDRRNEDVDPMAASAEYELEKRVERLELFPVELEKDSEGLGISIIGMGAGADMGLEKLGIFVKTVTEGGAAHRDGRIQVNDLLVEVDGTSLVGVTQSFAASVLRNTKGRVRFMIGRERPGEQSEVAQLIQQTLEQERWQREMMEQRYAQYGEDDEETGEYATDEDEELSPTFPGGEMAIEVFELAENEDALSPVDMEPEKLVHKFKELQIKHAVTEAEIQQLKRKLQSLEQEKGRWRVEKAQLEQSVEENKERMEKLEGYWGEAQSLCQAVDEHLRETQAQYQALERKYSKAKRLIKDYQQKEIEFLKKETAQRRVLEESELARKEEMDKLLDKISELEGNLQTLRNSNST

Row | effect of a mutation on the interaction | Substance
1 | increasing interaction | Neurabin-2 (Homo sapiens), Q96SB3 F451A
2 | decreasing interaction | Neurabin-2 (Homo sapiens), Q96SB3 S212A
3 | increasing interaction | Neurabin-2 (Homo sapiens), Q96SB3 S248A
4 | disrupting interaction | Neurabin-2 (Homo sapiens), Q96SB3 S635A

Reference: IntAct's records for PubMed 34591612
